The results in this text go back to the RNAGym collection of RNA variant scans (doi:10.7554/elife.90254).

First the molecules themselves.
B1: LINE1-mini (parent)
chain: GGCAGAGCUCAACACAGCGUGGCAAAGUGGCUGUGGCUAGACUGCC

The variants in this data set derive from B1. Briefly: self-cleavage, relative activity (ratio to wild type); higher = more cleavage; in vitro, sequencing; the parent is a self-cleaving ribozyme.
For the variant GGCAGAGAUCAACACAGCGUGGCAAAGUGGCUGUGGAUAGACUGCC [C8A C37A], the self-cleavage came out at 0.12. Consider GGCAGAGAUCAACACAGCGUGGCAAAGUGGCUGUGGUUAGACUGCC [C8A C37U], for which the self-cleavage was determined as 0.17. Next, GGCAGAGAUCAACACAGCGUGGCAAAGUGGCUGUGGGUAGACUGCC [C8A C37G]: 0.1; GGCAGAGAUCAACACAGCGUAGCAAAGUGGCUGUGGCUAGACUGCC [C8A G21A]: 0.63; GGCAGAGAUCAACACAGCGUCGCAAAGUGGCUGUGGCUAGACUGCC [C8A G21C]: 0.21.

GGCAGAGAUCAACACAGCGUUGCAAAGUGGCUGUGGCUAGACUGCC [C8A G21U]: the self-cleavage was 0.23. For GGCAGAGAUCAACACACCGUGGCAAAGUGGCUGUGGCUAGACUGCC [C8A G17C], the self-cleavage came to 0.22. Regarding GGCAGAGAUCAACACAUCGUGGCAAAGUGGCUGUGGCUAGACUGCC [C8A G17U], the self-cleavage stood at 0.27. Turning to GGCAGAGAUCAACACAACGUGGCAAAGUGGCUGUGGCUAGACUGCC [C8A G17A], the self-cleavage is 0.3. Turning to GGCAGAGAUCAACACAGCGUGGCAAAGUGGGUGUGGCUAGACUGCC [C8A C31G], the self-cleavage amounted to 0.15. For the variant GGCAGAGAUCAACACAGCGUGGCAAAGUGGUUGUGGCUAGACUGCC [C8A C31U], the self-cleavage came to 0.21. GGCAGAGAUCAACACAGCGUGGCAAAGUGGAUGUGGCUAGACUGCC [C8A C31A]: the self-cleavage worked out at 0.36.

For the variant GGCAGAGAUCAACACAGCGUGGCAUAGUGGCUGUGGCUAGACUGCC [C8A A25U], the self-cleavage amounted to 0.36. Consider GGCAGAGAUCAACACAGCGUGGCACAGUGGCUGUGGCUAGACUGCC [C8A A25C], for which the self-cleavage was 0.45. Take GGCAGAGAUCAACACAGCGUGGCAGAGUGGCUGUGGCUAGACUGCC [C8A A25G]: the self-cleavage turned out to be 0.23. Regarding GGCAGAGAUCAACACAGCGUGGCAAAGUGGCUGUGGCUAGACUGCG [C8A C46G], the self-cleavage was found to be 0.33. With GGCAGAGAUCAACACAGCGUGGCAAAGUGGCUGUGGCUAGACUGCU [C8A C46U], the self-cleavage came out at 0.43. Turning to GGCAGAGAUCAACACAGCGUGGCAAAGUGGCUGUGGCUAGACUGCA [C8A C46A], the self-cleavage came to 0.35. GGCAGAGAUCAACACAGCGUGGGAAAGUGGCUGUGGCUAGACUGCC [C8A C23G]: the self-cleavage was 0.22. Turning to GGCAGAGAUCAACACAGCGUGGAAAAGUGGCUGUGGCUAGACUGCC [C8A C23A], the self-cleavage was 0.25. In the case of GGCAGAGAUCAACACAGCGUGGUAAAGUGGCUGUGGCUAGACUGCC [C8A C23U], the self-cleavage stood at 0.27.

On to GGCAGAGAUCAACACAGCGUGGCAAAGUGGCUGUGGCUUGACUGCC [C8A A39U], for which the self-cleavage stood at 0.45. Turning to GGCAGAGAUCAACACAGCGUGGCAAAGUGGCUGUGGCUCGACUGCC [C8A A39C], the self-cleavage amounted to 0.32. Next, GGCAGAGAUCAACACAGCGUGGCAAAGUGGCUGUGGCUGGACUGCC [C8A A39G]: 0.08; GGCAGAGAUCAACACAGCAUGGCAAAGUGGCUGUGGCUAGACUGCC [C8A G19A]: 0.38. Consider GGCAGAGAUCAACACAGCUUGGCAAAGUGGCUGUGGCUAGACUGCC [C8A G19U], for which the self-cleavage was 0.11. On to GGCAGAGAUCAACACAGCCUGGCAAAGUGGCUGUGGCUAGACUGCC [C8A G19C], for which the self-cleavage was determined as 0.1. With GGCAGAGAUCAACACAGCGUGGCAAAAUGGCUGUGGCUAGACUGCC [C8A G27A], the self-cleavage came to 0.17. GGCAGAGAUCAAAACAGCGUGGCAAAGUGGCUGUGGCUAGACUGCC [C8A C13A]: the self-cleavage was determined as 0.67. On to GGCAGAGAUCAAUACAGCGUGGCAAAGUGGCUGUGGCUAGACUGCC [C8A C13U], for which the self-cleavage is 0.9. As to GGCAGAGAUCAAGACAGCGUGGCAAAGUGGCUGUGGCUAGACUGCC [C8A C13G], the self-cleavage came out at 0.36. Regarding GGCAGAGAUCAACACAGCGUGGCAAGGUGGCUGUGGCUAGACUGCC [C8A A26G], the self-cleavage worked out at 0.21. GGCAGAGAUCAACACAGCGUGGCAAUGUGGCUGUGGCUAGACUGCC [C8A A26U]: the self-cleavage stood at 0.3. For GGCAGAGAUCAACACAGCGUGGCAACGUGGCUGUGGCUAGACUGCC [C8A A26C], the self-cleavage came to 0.26. With GGCAGAGAUCAACACAGCGUGUCAAAGUGGCUGUGGCUAGACUGCC [C8A G22U], the self-cleavage worked out at 0.24. Take GGCAGAGAUCAACACAGCGUGCCAAAGUGGCUGUGGCUAGACUGCC [C8A G22C]: the self-cleavage was determined as 0.17. Take GGCAGAGAUCAACACAGCGUGACAAAGUGGCUGUGGCUAGACUGCC [C8A G22A]: the self-cleavage was 0.18.

GGCAGAGAUCAACACAGUGUGGCAAAGUGGCUGUGGCUAGACUGCC [C8A C18U]: the self-cleavage was 0.27.

GGCAGAGAUCAACACAGGGUGGCAAAGUGGCUGUGGCUAGACUGCC [C8A C18G]: the self-cleavage amounted to 0.15. As to GGCAGAGAUCAACACAGAGUGGCAAAGUGGCUGUGGCUAGACUGCC [C8A C18A], the self-cleavage was determined as 0.37.

Consider GGCAGAGAUCAACACAGCGUGGCUAAGUGGCUGUGGCUAGACUGCC [C8A A24U], for which the self-cleavage was 0.34. As to GGCAGAGAUAAACACAGCGUGGCAAAGUGGCUGUGGCUAGACUGCC [C8A C10A], the self-cleavage was 0.04. Regarding GGCAGAGAUGAACACAGCGUGGCAAAGUGGCUGUGGCUAGACUGCC [C8A C10G], the self-cleavage worked out at 0.02.

GGCAGAGAUUAACACAGCGUGGCAAAGUGGCUGUGGCUAGACUGCC [C8A C10U]: the self-cleavage is 0.08. With GGCAGAGAUCAACACAGCGUGGCAAAGUGGCUGUGGCUAGGCUGCC [C8A A41G], the self-cleavage worked out at 0.29. Take GGCAGAGAUCAACACAGCGUGGCAAAGUGGCUGUGGCUAGUCUGCC [C8A A41U]: the self-cleavage was determined as 0.48. Next, GGCAGAGAUCAACACAGCGUGGCAAAGUGGCUGUGGCUAGCCUGCC [C8A A41C]: 0.36. Next, GGCAGAGAUCAACACAGCGUGGCAAAGUGGCUGUGGCUAGAUUGCC [C8A C42U]: 0.24.

On to GGCAGAGAUCAACACAGCGUGGCAAAGUGGCUGUGGCUAGAAUGCC [C8A C42A], for which the self-cleavage was 0.29. As to GGCAGAGAUCAACACAGCGUGGCAAAGUGGCUGUGGCUAGAGUGCC [C8A C42G], the self-cleavage was found to be 0.19.

On to GGCAGAGAUCAACACAGCGUGGCAAAGUGGCUGUGGCUAGACUGUC [C8A C45U], for which the self-cleavage is 0.32. As to GGCAGAGAUCAACACAGCGUGGCAAAGUGGCUGUGGCUAGACUGGC [C8A C45G], the self-cleavage came out at 0.28. Next, GGCAGAGAUCAACACAGCGUGGCAAAGUGGCUGUGGCUAGACUGAC [C8A C45A]: 0.7; GGCAGAGAUCAACAGAGCGUGGCAAAGUGGCUGUGGCUAGACUGCC [C8A C15G]: 0.22; GGCAGAGAUCAACAUAGCGUGGCAAAGUGGCUGUGGCUAGACUGCC [C8A C15U]: 0.23.

Regarding GGCAGAGAUCAACAAAGCGUGGCAAAGUGGCUGUGGCUAGACUGCC [C8A C15A], the self-cleavage worked out at 0.37.
